The values that follow come from the supplement of paper PMC11316812.

The test system of one data set is hTERT-HMEC. The experiment in a line: percentage of EdU-negative (G0-arrested) nuclei per well, 72 h; higher = more G0 arrest. Conditions: reference: sequence is the full UniProt precursor, the tested protein was the secreted form or ectodomain.
For another data set, the system named is MCF7. The data set is described as above. Conditions: reference: sequence is the full UniProt precursor, the tested protein was the secreted form or ectodomain.
Setting [1] is: protein concentration 0.0225 µM.
Setting [2] is: protein concentration 0.027265 µM.
Where [3] appears, read: protein concentration 0.27265 µM.
Where [4] appears, read: protein concentration 0.00775 µM.
Setting [5] is: protein concentration 0.0775 µM.

± gives the standard deviation of the averaged measurements.
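Also: secreted proteins added to cultured cells, EdU pulse at the end, nuclei found by Hoechst imaging, EdU status from nuclear versus surrounding ring intensity ratio, PBS as neutral control.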

Take “MPALGWAVAAILMLQTAMAEPSPGTLPRKAGVFSDLSNQELKAVHSFLWSKKELRLQPSSTTTMAKNTVFLIEMLLPKKYHVLRFLDKGERHPVREARAVIFFGDQEHPNVTEFAVGPLPGPCYMRALSPRPGYQSSWASRPISTAEYALLYHTLQEATKPLHQFFLNTTGFSFQDCHDRCLAFTDVAPRGVASGQRRSWLIIQRYVEGYFLHPTGLELLVDHGSTDAGHWAVEQVWYNGKFYGSPEELARKYADGEVDVVVLEDPLPGGKGHDSTEEPPLFSSHKPRGDFPSPIHVSGPRLVQPHGPRFRLEGNAVLYGGWSFAFRLRSSSGLQVLNVHFGGERIAYEVSVQEAVALYGGHTPAGMQTKYLDVGWGLGSVTHELAPGIDCPETATFLDTFHYYDADDPVHYPRALCLFEMPTGVPLRRHFNSNFKGGFNFYAGLKGQVLVLRTTSTVYNYDYIWDFIFYPNGVMEAKMHATGYVHATFYTPEGLRHGTRLHTHLIGNIHTHLVHYRVDLDVAGTKNSFQTLQMKLENITNPWSPRHRVVQPTLEQTQYSWERQAAFRFKRKLPKYLLFTSPQENPWGHKRTYRLQIHSMADQVLPPGWQEEQAITWARYPLAVTKYRESELCSSSIYHQNDPWHPPVVFEQFLHNNENIENEDLVAWVTVGFLHIPHSEDIPNTATPGNSVGFLLRPFNFFPEDPSLASRDTVIVWPRDNGPNYVQRWIPEDRDCSMPPPFSYNGTYRPV”: the “percentage of EdU-negative” value stood at 5.16 ± 1.3% with hTERT-HMEC (protein concentration 0.019 µM), 11 ± 0.68% in the data set with hTERT-HMEC (protein concentration 0.19 µM), 25 ± 4.8% with MCF7 (protein concentration 0.019 µM) and 29.1 ± 1.2% in the data set on MCF7 (protein concentration 0.19 µM).
For “MPAVFMLASSSALQCGRGVPRFPRTEVGAGHSVNEETKAEKVGNQTSVIPATSRQAALGTSWTQRRTQPLQERSHWHPRGNNASGMGGHRMFPGPLRGPAAQVLENECGSLGRAAEGRS [Q8N2X6]”, the “percentage of EdU-negative” value in the data set with hTERT-HMEC (setting [1]) worked out at 4.66 ± 0.059%; in the data set on hTERT-HMEC (protein concentration 0.225 µM), 4.77 ± 0.18%; in the data set on MCF7 (setting [1]), 24.5 ± 1.8%; with MCF7 (protein concentration 0.225 µM) it was 24.7 ± 0.9%.
On to “MPDTMLPACFLGLLAFSSACYFQNCPRGGKRAMSDLELRQCLPCGPGGKGRCFGPSICCADELGCFVGTAEALRCQEENYLPSPCQSGQKACGSGGRCAAFGVCCNDESCVTEPECREGFHRRARASDRSNATQLDGPAGALLLRLVQLAGAPEPFEPAQPDAY”, for which the “percentage of EdU-negative” value was 5.39 ± 0.55% with hTERT-HMEC (setting [2]), 5.52 ± 1.1% with hTERT-HMEC (setting [3]), 24 ± 0.36% with MCF7 (setting [2]) and 24.4 ± 0.13% in the data set on MCF7 (setting [3]).
On to “MPEEGSGCSVRRRPYGCVLRAALVPLVAGLVICLVVCIQRFAQAQQQLPLESLGWDVAELQLNHTGPQQDPRLYWQGGPALGRSFLHGPELDKGQLRIHRDGIYMVHIQVTLAICSSTTASRHHPTTLAVGICSPASRSISLLRLSFHQGCTIASQRLTPLARGDTLCTNLTGTLLPSRNTDETFFGVQWVRP”, for which the “percentage of EdU-negative” value was 5.04 ± 0.08% with hTERT-HMEC (setting [1]), 5.11 ± 0.64% with hTERT-HMEC (protein concentration 0.225 µM), 26.5 ± 2.2% with MCF7 (setting [1]) and 26.6 ± 0.44% in the data set on MCF7 (protein concentration 0.225 µM).
As to “MPERLAEMLLDLWTPLIILWITLPPCIYMAPMNQSQVLMSGSPLELNSLGEEQRILNRSKRGWVWNQMFVLEEFSGPEPILVGRLHTDLDPGSKKIKYILSGDGAGTIFQINDVTGDIHAIKRLDREEKAEYTLTAQAVDWETSKPLEPPSEFIIKVQDINDNAPEFLNGPYHATVPEMSILGTSVTNVTATDADDPVYGNSAKLVYSILEGQPYFSIEPETAIIKTALPNMDREAKEEYLVVIQAKDMGGHSGGLSGTTTLTVTLTDVNDNPPKFAQSLYHFSVPEDVVLGTAIGRVKANDQDIGENAQSSYDIIDGDGTALFEITSDAQAQDGIIRLRKPLDFETKKSYTLKVEAANVHIDPRFSGRGPFKDTATVKIVVEDADEPPVFSSPTYLLEVHENAALNSVIGQVTARDPDITSSPIRFSIDRHTDLERQFNINADDGKITLATPLDRELSVWHNITIIATEIRNHSQISRVPVAIKVLDVNDNAPEFASEYEAFLCENGKPGQVIQTVSAMDKDDPKNGHYFLYSLLPEMVNNPNFTIKKNEDNSLSILAKHNGFNRQKQEVYLLPIIISDSGNPPLSSTSTLTIRVCGCSNDGVVQSCNVEAYVLPIGLSMGALIAILACIILLLVIVVLFVTLRRHKNEPLIIKDDEDVRENIIRYDDEGGGEEDTEAFDIATLQNPDGINGFLPRKDIKPDLQFMPRQGLAPVPNGVDVDEFINVRLHEADNDPTAPPYDSIQIYGYEGRGSVAGSLSSLESTTSDSDQNFDYLSDWGPRFKRLGELYSVGESDKET”, the “percentage of EdU-negative” value worked out at 5.37 ± 0.11% with hTERT-HMEC (setting [4]), 5.69 ± 0.22% in the data set with hTERT-HMEC (setting [5]), 27.78 ± 0.12% in the data set on MCF7 (setting [4]) and 34.9 ± 1.6% in the data set on MCF7 (setting [5]).
Turning to “MPGAAEALPTVTVTLVAGAVPPASGALTAHCIGGFWREVGVASDQSLVLTAPKRVEGLFLTLSGSNLTVKVAYNSSGSCEIEKIVGSEIDSTGKFAFPGHREIHVLDTDYEGYAILRVSLMWRGRNFRVLKYFTRSLEDKDRLGFWKFRELTADTGLYLAARPGRCAELLKEELI [Q6JVE9]”, the “percentage of EdU-negative” value in the data set on hTERT-HMEC (setting [1]) is 5.03 ± 0.21%; in the data set on hTERT-HMEC (protein concentration 0.225 µM), 9.51 ± 1.1%; in the data set on MCF7 (setting [1]), 26.5 ± 1.8%; in the data set with MCF7 (protein concentration 0.225 µM), 31 ± 2.1%.
